Reference: publication PMC10892419, “UHPLC-MS/MS Assay for Quantification of Legubicin, a Novel Doxorubicin-Based Legumain-Activated Prodrug, and Its Application to Pharmacokinetic and Tissue Distribution Studies” (Molecules, 2024)
Residues, ends and D or L forms follow the SMILES beside them. *: point of attachment. Doxorubicin(3'-N) = COc1cccc2c1C(=O)c1c(O)c3c(c(O)c1C2=O)C[C@@](O)(C(=O)CO)C[C@@H]3O[C@H]1C[C@H](N*)[C@H](O)[C@H](C)O1; Hexanoyl(6-maleimido) = O=C1C=CC(=O)N1CCCCCC(=O)*

Key:
[1] = acute toxicological assessment in dogs; ref unpublished preclinical studies at the authors' institution; cited from earlier work
[2] = Tissue-distribution study after i.v. legubicin or doxorubicin; settings: HT1080 tumor-bearing mice
Method: The mixture was vortexed for 3 min, and then centrifuged at 22,000× g at 4 °C for 10 min. A final analysis was conducted by injecting 5 µL supernatant into a UHPLC-MS/MS system. Mouse plasma samples were treated in the same way as the rat plasma samples, except for protein precipitation, with 200 µL of 5 pmol/mL IS working solution and injection of 2 µL of supernatant for analysis.
Each legubicin administration group corresponded to a sampling time-point (4, 16, 32, 48, 96, 168, and 240 h after administration). […] Blood samples and tumor, heart, and kidney tissues were collected at the sampling time points (4, 16, 32, 48, 96, 168, and 240 h after dosing). In addition, liver, spleen, lung, stomach, small intestine, gonads, brain, skeletal muscle, and skin were also collected at 4, 32, 96, and 240 h post-dose time points in the legubicin administration group. All whole-blood samples were processed according to the same processing steps, described above, for rat whole-blood samples.
The analysis software (Version 1.5.2, AB Sciex, Vaughan, ON, Canada) was applied to data acquisition and quantification. Pharmacokinetic parameters were calculated with WinNonlin Phoenix (v6.4, Pharsight, Mountain View, CA, USA) with the noncompartmental method, and were presented as mean ± SD (%CV). The “Best fit” strategy in the WinNonlin Phoenix was used for the calculation of elimination half-life and the selection of the elimination phase. Graphs were plotted by GraphPad Software (GraphPad Prism 8.0.2; GraphPad Software, Inc., La Jolla, CA, USA).

[3] = cited from earlier work
[4] = legubicin vs equimolar doxorubicin (9.05 µmol/kg i.v.)

COc1cccc2c1C(=O)c1c(O)c3c(c(O)c1C2=O)C[C@@](O)(C(=O)CO)C[C@@H]3O[C@H]1C[C@H](NC(=O)[C@H](CC(C)C)NC(=O)[C@H](CC(N)=O)NC(=O)[C@H](C)NC(=O)[C@H](C)NC(=O)CCCCCN2C(=O)C=CC2=O)[C@H](O)[C@H](C)O1 [Legubicin] ({Hexanoyl(6-maleimido)}-AANL-{Doxorubicin(3'-N)})
MTD relative to doxorubicin [1]: tenfold increase compared to doxorubicin
maximum tolerated dose (MTD) [1]: 15 mg/kg
T/P Ratio of doxorubicin, kidney ([2]; i.v. 9.05 µmol/kg of the labelled drug, n = 6, tissue-to-plasma ratio): 28.9
fold decrease in doxorubicin exposure (AUClast) in the heart [2, 4]: 3.3 fold
fold decrease in doxorubicin exposure (AUClast) in the kidney [2, 4]: 3.5 fold
fold increase in tumor doxorubicin exposure (AUClast) [2, 4]: 1.8 fold

COc1cccc2c1C(=O)c1c(O)c3c(c(O)c1C2=O)C[C@@](O)(/C(CO)=N/NC(=O)CCCCCN1C(=O)C=CC1=O)C[C@@H]3O[C@H]1C[C@H](N)[C@H](O)[C@H](C)O1 [DOXO-EMCH, doxorubicin (6-maleimidocaproyl) hydrazone]
AUC ([3]; doses equivalent to 2.5 mg/kg of doxorubicin): 536 µM·h
clearance (CL) ([3]; published value): approximately 7.9 mL/h/kg
